Experimental data reported in the Human Domainome abundance scans (Beltran et al. 2025).
± gives the uncertainty stated by the source.

B1: Max-interacting protein 1, residues 70 to 120; numbered along this chain, P50539 (parent)
chain: STHNELEKNRRAHLRLCLERLKVLIPLGPDCTRHTTLGLLNKAKAHIKKLE

Variants of: B1
Assay: abundance fitness (aPCA) (normalised: wild type 0, dead -1); higher = more abundant; growth selection in yeast, the domain comes from the species named
Settings: Homo sapiens

| Variant | abundance fitness |
| --- | --- |
| STHKELEKNRRAHLRLCLERLKVLIPLGPDCTRHTTLGLLNKAKAHIKKLE [N4K] | -0.168 ± 0.13 |
| STHNELEKNRRAHLRLCLERLKVLIPQGPDCTRHTTLGLLNKAKAHIKKLE [L27Q] | -0.149 ± 0.14 |
| STHNELEKNRRAHLRLCLERLKVLIPAGPDCTRHTTLGLLNKAKAHIKKLE [L27A] | -0.006 ± 0.096 |
| STHNELEKNRRAHWRLCLERLKVLIPLGPDCTRHTTLGLLNKAKAHIKKLE [L14W] | 0.187 ± 0.091 |
| STHNELEKNRRAHLRLCLERLKVLIPLGPDCTRHTTLGLLNKAKSHIKKLE [A45S] | -0.262 ± 0.12 |
| STHNELEKNRRAHLRLCLERLKVLIPLGPDCTRHTTLGLLNKAKDHIKKLE [A45D] | -0.617 ± 0.22 |
| STHNELEKNRRAHLRLCLERLKVLIPLGPDCTRHTTLGLLNKAKQHIKKLE [A45Q] | 0.085 ± 0.14 |
| STHNELEKNRRAHLRLCLERLKVLIPLGPDCTRHTTLGLLNKAKWHIKKLE [A45W] | -0.483 ± 0.11 |
| STHNELSKNRRAHLRLCLERLKVLIPLGPDCTRHTTLGLLNKAKAHIKKLE [E7S] | 0.06 ± 0.095 |
| SLHNELEKNRRAHLRLCLERLKVLIPLGPDCTRHTTLGLLNKAKAHIKKLE [T2L] | -0.519 ± 0.075 |
| SDHNELEKNRRAHLRLCLERLKVLIPLGPDCTRHTTLGLLNKAKAHIKKLE [T2D] | -0.209 ± 0.085 |
| SQHNELEKNRRAHLRLCLERLKVLIPLGPDCTRHTTLGLLNKAKAHIKKLE [T2Q] | 0.161 ± 0.11 |
| SKHNELEKNRRAHLRLCLERLKVLIPLGPDCTRHTTLGLLNKAKAHIKKLE [T2K] | 0.002 ± 0.086 |
| STHNNLEKNRRAHLRLCLERLKVLIPLGPDCTRHTTLGLLNKAKAHIKKLE [E5N] | 0.282 ± 0.17 |
| STHNQLEKNRRAHLRLCLERLKVLIPLGPDCTRHTTLGLLNKAKAHIKKLE [E5Q] | -0.193 ± 0.12 |
| STYNELEKNRRAHLRLCLERLKVLIPLGPDCTRHTTLGLLNKAKAHIKKLE [H3Y] | -0.078 ± 0.21 |
| STHNELEKNRRAHLRLCLERLKVLIPLAPDCTRHTTLGLLNKAKAHIKKLE [G28A] | -0.284 ± 0.12 |
| STHNELEKNRRAHLRLCLERLKVLIPLVPDCTRHTTLGLLNKAKAHIKKLE [G28V] | 0.273 ± 0.088 |
| STHNELEKNRRAHLRLCLERLCVLIPLGPDCTRHTTLGLLNKAKAHIKKLE [K22C] | -0.871 ± 0.18 |
| STHNELEKNRRAHLRLCLERLVVLIPLGPDCTRHTTLGLLNKAKAHIKKLE [K22V] | -0.926 ± 0.15 |
| STHNELEKNRRAHLRLCLERLEVLIPLGPDCTRHTTLGLLNKAKAHIKKLE [K22E] | -0.885 ± 0.15 |
| STHNELEKNRRAHLRLQLERLKVLIPLGPDCTRHTTLGLLNKAKAHIKKLE [C17Q] | -0.635 ± 0.16 |
| STHNELEKNRRAHLRLSLERLKVLIPLGPDCTRHTTLGLLNKAKAHIKKLE [C17S] | -0.641 ± 0.1 |
| STHNELEKNRRAHLRLCLERLKVLIPLGPDCTRHTTLGLLNNAKAHIKKLE [K42N] | -0.598 ± 0.18 |
| STHNELEKNRRAHLRMCLERLKVLIPLGPDCTRHTTLGLLNKAKAHIKKLE [L16M] | -0.001 ± 0.16 |
| STHNELEKNRRAHLRKCLERLKVLIPLGPDCTRHTTLGLLNKAKAHIKKLE [L16K] | 0.022 ± 0.15 |

| Variant | abundance fitness |
| --- | --- |
| STHNELEKNRRAHLRLCLEMLKVLIPLGPDCTRHTTLGLLNKAKAHIKKLE [R20M] | -1 ± 0.16 |
| STHNELEKNRRAHLRLCLEHLKVLIPLGPDCTRHTTLGLLNKAKAHIKKLE [R20H] | -0.726 ± 0.27 |
| STHNELEKNRRAHLRLCLEILKVLIPLGPDCTRHTTLGLLNKAKAHIKKLE [R20I] | -1.11 ± 0.23 |
| STHNELEKNRRAHLRLCLERLKVLIPLGPDCTRHTTLGLRNKAKAHIKKLE [L40R] | -0.698 ± 0.088 |
| STHNELEKNRRAHLRLCLERLKVLIPLGPDCTRHTTLGLDNKAKAHIKKLE [L40D] | -1.13 ± 0.23 |
| STHNELEKNIRAHLRLCLERLKVLIPLGPDCTRHTTLGLLNKAKAHIKKLE [R10I] | -0.289 ± 0.13 |
| STHNELEKNLRAHLRLCLERLKVLIPLGPDCTRHTTLGLLNKAKAHIKKLE [R10L] | -0.076 ± 0.098 |
| STHNELEKNARAHLRLCLERLKVLIPLGPDCTRHTTLGLLNKAKAHIKKLE [R10A] | 0.038 ± 0.088 |
| STHNELEKNRRAHLGLCLERLKVLIPLGPDCTRHTTLGLLNKAKAHIKKLE [R15G] | -0.383 ± 0.091 |
| STHNELEKNRRAHLNLCLERLKVLIPLGPDCTRHTTLGLLNKAKAHIKKLE [R15N] | -0.777 ± 0.17 |
| STHNELEKNRRAHLDLCLERLKVLIPLGPDCTRHTTLGLLNKAKAHIKKLE [R15D] | -0.749 ± 0.16 |
| STHNELEKNRRAHLLLCLERLKVLIPLGPDCTRHTTLGLLNKAKAHIKKLE [R15L] | -0.432 ± 0.1 |
| STHNELEKNRRAHLRLCLERRKVLIPLGPDCTRHTTLGLLNKAKAHIKKLE [L21R] | -1.05 ± 0.1 |
| STHNELEKNRRAHLRLCLERKKVLIPLGPDCTRHTTLGLLNKAKAHIKKLE [L21K] | -0.739 ± 0.2 |
| STHNELEKNRRAHLRLCLERLKVLIPLGPDLTRHTTLGLLNKAKAHIKKLE [C31L] | 0 ± 0.098 |
| STHNELEKNRRAHLRLCLERLKVLIPLGPDHTRHTTLGLLNKAKAHIKKLE [C31H] | 0.308 ± 0.15 |
| STHNELEKNRRAHLRLCLERLKVLIPLGPDCTRWTTLGLLNKAKAHIKKLE [H34W] | 0.017 ± 0.091 |
| STHNELEKNRRAHLRLCLERLKVLIPLGPDCTRHTRLGLLNKAKAHIKKLE [T36R] | -0.19 ± 0.09 |
| STHNELEKNRRAHLRLCLERLKVLIPLGPDCTRHTQLGLLNKAKAHIKKLE [T36Q] | -0.199 ± 0.13 |
| STHNELEKNRRAHLRLCLERLKVPIPLGPDCTRHTTLGLLNKAKAHIKKLE [L24P] | -0.938 ± 0.29 |
| STHNELEKNRRAHLRLCLERLKVEIPLGPDCTRHTTLGLLNKAKAHIKKLE [L24E] | -0.751 ± 0.15 |
| STHNELEKNRRAHLRLCLERLKVCIPLGPDCTRHTTLGLLNKAKAHIKKLE [L24C] | -0.013 ± 0.13 |
| STHNELEKNRRAHLRLCLERLKVQIPLGPDCTRHTTLGLLNKAKAHIKKLE [L24Q] | -0.569 ± 0.21 |
| STHNELEKNRRAHLRLCLERLKVNIPLGPDCTRHTTLGLLNKAKAHIKKLE [L24N] | -0.715 ± 0.21 |
| STHNELEKNRRAHLRLCLERLKVRIPLGPDCTRHTTLGLLNKAKAHIKKLE [L24R] | 0.013 ± 0.079 |
